{
  "source": "patent US20110171285A1",
  "about": "“Design of Fibrinogen and Fibrinogen Derived Products with Reduced Bacterial Binding by Using Modified Sequences of Fibrinogen Chains” (priority 2009, published 2011)",
  "key": {"[1]": {"molecular_target": "recombinant ClfA229-545 (S. aureus clumping factor A, N2N3 domains), 6xHis tagged (Staphylococcus aureus) (UniProt Q53653)", "sequence (Q53653 229-545 limits assumed)": "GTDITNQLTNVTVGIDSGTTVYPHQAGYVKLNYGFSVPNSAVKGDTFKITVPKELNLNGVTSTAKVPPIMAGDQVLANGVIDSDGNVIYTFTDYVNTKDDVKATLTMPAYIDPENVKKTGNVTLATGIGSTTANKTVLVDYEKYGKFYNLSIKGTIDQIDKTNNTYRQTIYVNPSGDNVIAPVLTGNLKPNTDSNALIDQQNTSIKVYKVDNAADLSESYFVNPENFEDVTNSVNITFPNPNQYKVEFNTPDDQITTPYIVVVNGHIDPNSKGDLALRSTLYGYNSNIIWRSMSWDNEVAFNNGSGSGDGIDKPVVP"}, "[2]": {"molecular_target": "recombinant ClfA229-545 (S. aureus clumping factor A, N2N3 domains), 6xHis tagged (Staphylococcus aureus) (UniProt Q53653)", "remark": "listed apart in the source"}, "[3]": {"molecular_target": "human 17-mer C-terminal Fg γ-chain peptide (…) (human)", "experiment": "human 17-mer peptide"}, "[4]": {"molecular_target": "human 15-mer C-terminal Fg γ-chain peptide (…) (human)", "experiment": "human 15-mer peptide"}, "[5]": {"molecular_target": "human fibrinogen (human) (UniProt P02671)", "sequence (P02671 20-629 limits assumed, chain 1 of 3)": "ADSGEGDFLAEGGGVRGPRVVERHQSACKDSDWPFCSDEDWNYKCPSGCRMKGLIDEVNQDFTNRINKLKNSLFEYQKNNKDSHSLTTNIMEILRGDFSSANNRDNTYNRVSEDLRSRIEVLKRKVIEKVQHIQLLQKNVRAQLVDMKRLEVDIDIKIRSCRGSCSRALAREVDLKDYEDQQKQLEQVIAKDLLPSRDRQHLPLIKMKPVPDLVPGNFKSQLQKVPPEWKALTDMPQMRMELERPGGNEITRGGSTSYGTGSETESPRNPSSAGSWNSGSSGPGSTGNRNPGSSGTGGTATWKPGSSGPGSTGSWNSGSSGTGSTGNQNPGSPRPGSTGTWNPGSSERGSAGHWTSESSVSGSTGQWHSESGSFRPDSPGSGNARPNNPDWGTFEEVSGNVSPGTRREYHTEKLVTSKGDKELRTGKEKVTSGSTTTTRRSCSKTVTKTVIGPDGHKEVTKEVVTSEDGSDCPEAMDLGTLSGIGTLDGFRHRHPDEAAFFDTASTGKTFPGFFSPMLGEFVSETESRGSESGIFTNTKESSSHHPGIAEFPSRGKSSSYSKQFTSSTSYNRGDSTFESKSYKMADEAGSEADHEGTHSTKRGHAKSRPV", "sequence (P02675 31-491 limits assumed, chain 2 of 3, further chain)": "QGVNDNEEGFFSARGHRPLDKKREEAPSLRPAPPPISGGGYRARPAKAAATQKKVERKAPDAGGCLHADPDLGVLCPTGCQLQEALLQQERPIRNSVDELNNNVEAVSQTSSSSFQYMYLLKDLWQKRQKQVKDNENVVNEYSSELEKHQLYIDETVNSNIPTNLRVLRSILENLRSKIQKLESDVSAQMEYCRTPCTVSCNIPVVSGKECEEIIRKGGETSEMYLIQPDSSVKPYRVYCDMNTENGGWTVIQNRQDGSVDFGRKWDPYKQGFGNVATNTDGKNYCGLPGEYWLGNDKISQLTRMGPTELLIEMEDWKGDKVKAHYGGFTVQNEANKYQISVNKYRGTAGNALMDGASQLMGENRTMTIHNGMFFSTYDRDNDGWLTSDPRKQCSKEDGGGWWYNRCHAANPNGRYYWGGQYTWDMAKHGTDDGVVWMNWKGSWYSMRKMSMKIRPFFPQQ", "sequence (P02679 other isoform, or with tags, fused parts or gaps limits assumed, chain 3 of 3, further chain)": "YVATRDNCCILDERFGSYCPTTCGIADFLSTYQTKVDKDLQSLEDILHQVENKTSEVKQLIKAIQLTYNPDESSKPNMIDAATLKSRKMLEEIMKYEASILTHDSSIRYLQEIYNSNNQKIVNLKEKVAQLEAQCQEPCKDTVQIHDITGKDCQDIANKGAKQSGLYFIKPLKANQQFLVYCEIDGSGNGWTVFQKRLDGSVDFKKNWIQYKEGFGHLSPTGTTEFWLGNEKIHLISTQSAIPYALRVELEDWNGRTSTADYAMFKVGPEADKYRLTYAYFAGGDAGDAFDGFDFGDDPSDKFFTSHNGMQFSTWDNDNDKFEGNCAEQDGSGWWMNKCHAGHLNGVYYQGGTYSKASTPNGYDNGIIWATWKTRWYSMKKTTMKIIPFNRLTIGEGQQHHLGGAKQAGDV"}},
  "note": "Like-named read-outs stand apart in the source and are kept apart here.",
  "data": [
    {"substance": "human 15-mer C-terminal Fg γ-chain peptide (…)", "values": [
      {"measurement": "N", "setting": "[1]", "result": 1.29},
      {"measurement": "ΔH", "setting": "[1]", "result": -3640},
      {"measurement": "ΔS", "setting": "[1]", "result": 8.03}
    ]},
    {"substance": "sheep (ovine) 15-mer C-terminal Fg γ-chain peptide (…)", "values": [
      {"measurement": "N", "setting": "[2]", "result": 16.2},
      {"measurement": "ΔH", "setting": "[2]", "result": 1340},
      {"measurement": "ΔS", "setting": "[2]", "result": 20.4}
    ]},
    {"substance": "recombinant ClfA229-545 (S. aureus clumping factor A, N2N3 domains), 6xHis tagged (from UniProt Q53653 229-545)", "values": [
      {"measurement": "Kd", "setting": "[3]", "result": 23, "unit": "µM"},
      {"measurement": "Kd", "setting": "[4]", "result": 40, "unit": "µM"},
      {"measurement": "EC50 (read off the curve)", "setting": "[5]", "result": 0.2, "unit": "µM"}
    ]}
  ]
}
